The source of these data is ChEMBL document CHEMBL2074060, “MDR1 P-glycoprotein transports endogenous opioid peptides” (Peptides, 2001).

The test system of this series is C[C@@H](NC(=O)[C@@H](N)Cc1ccc(O)cc1)C(=O)NCC(=O)N(C)[C@@H](Cc1ccccc1)C(=O)NCCO. Put plainly: TP_TRANSPORTER: uptake in membrane vesicle from MDR1-expressing SW1573/S1 cell. Type of series: functional, cell membranes.

Broadly, the Km is the substrate concentration at which the rate is half of its maximum. Turning to “ATP-dependent translocase ABCB1 (Homo sapiens)”, the Km was 43 µM.
